Experimental data published in paper PMC11592472.

How the values were obtained:
[1] = biological target: equine LH/CGR trileucine mutant eLH/CGR-LLA (equine)
[2] = biological target: equine LH/CGR trileucine mutant eLH/CGR-LAL (equine)
[3] = biological target: equine lutropin/choriogonadotropin receptor, wild type (eLH/CGR-wt) (equine)
[4] = biological target: equine LH/CGR trileucine mutant eLH/CGR-AAA (equine)
[5] = biological target: equine LH/CGR trileucine mutant eLH/CGR-ALL (equine)

Substance: recombinant equine chorionic gonadotropin (rec-eCG) (from UniProt P01220 25-120; P08751 21-169) (ligand)
- EC50 of the cAMP response (HTRF) of transfected CHO-K1 cells stimulated with rec-eCG for 30 min at room temperature [1]: 0.0197 mg/L
- EC50 of the cAMP response (HTRF) of transfected CHO-K1 cells stimulated with rec-eCG for 30 min at room temperature [2]: 0.0143 mg/L
- EC50 of the cAMP response (HTRF) of transfected CHO-K1 cells stimulated with rec-eCG for 30 min at room temperature [3]: 0.0185 mg/L
- EC50 of the cAMP response (HTRF) of transfected CHO-K1 cells stimulated with rec-eCG for 30 min at room temperature [4]: 0.0352 mg/L
- EC50 of the cAMP response (HTRF) of transfected CHO-K1 cells stimulated with rec-eCG for 30 min at room temperature [5]: 0.0046 mg/L
